Source: article PMC7078208, “Interaction of SHP-2 SH2 domains with PD-1 ITSM induces PD-1 dimerization and SHP-2 activation” (Communications Biology, 2020)
pKd: −log10 of the molar value. Square brackets hold non-standard residues; d marks the D form. Ends that are not written are not given here. pY = N[C@@H](Cc1ccc(OP(=O)(O)O)cc1)C(=O)O

Legend:
[1] = target: T1, t-SHP-2 (SHP-2 tandem SH2 domains, amino acids 1-225) (Homo sapiens, UniProt Q06124); assay: Isothermal titration calorimetry of PD-1 phosphopeptides with t-SHP-2; assay type: binding; settings: for pKd: ITC, MicroCal ITC200, peptide 50-100 µM titrated into t-SHP-2 3-5 µM, 19 injections, 20 °C, 50 mM HEPES pH 7.4, 100 mM NaCl, 5 mM TCEP
T1 construct: made in house
T1 sequence (Q06124 1-225): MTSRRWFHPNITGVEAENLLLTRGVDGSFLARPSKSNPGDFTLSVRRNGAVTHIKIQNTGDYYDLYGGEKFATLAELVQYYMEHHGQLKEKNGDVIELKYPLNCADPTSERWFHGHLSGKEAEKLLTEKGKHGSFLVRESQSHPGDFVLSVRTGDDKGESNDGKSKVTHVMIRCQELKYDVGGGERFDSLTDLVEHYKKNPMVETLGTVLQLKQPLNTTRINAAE
Experimental: Isothermal titration calorimetry (ITC) was performed on a MicroCal ITC200 instrument (Malvern, Worcestershire, UK), using established methodology. Briefly, PD-1 phosphopeptides (PD-1cyto-pITIM-pITSM, PD-1cyto-ITIM-pITSM and PD-1cyto-pITIM-ITSM) and SHP-2 tandem-SH2 protein (t-SHP-2) were prepared in buffer containing 50 mM HEPES pH 7.4, 100 mM NaCl, 5 mM TCEP. Each peptide (50–100 µM) was titrated into a t-SHP-2 sample (3–5 µM) in a total of 19 injections at 20^ oC. We used reference power 6.0, initial delay 60 s and stirring speed 750 rpm. Injection volume was 0.4 µl for first injection and 2 µl for subsequent injections, injection duration was 0.8 s for first injection and 4 s for subsequent injections, with 150 s spacing and 5 s filter period. Reference cell was filled with sterile Milli-Q water. Controls of peptide titrations into buffer were run for baseline corrections. Data analysis was done using Origin 7.0 software.

[2] = tested on: PD-1-SmBiT: PD-1-LgBiT complex (PD-1: PD-1 interaction) in HEK-293 cells; assay: NanoBiT assay for PD-1 dimerization in HEK-293 cells; assay type: cell-based, human; settings: HEK-293 transfected with PD-1-SmBiT, active Fyn and SHP-2, increasing amounts, Fig. 4e
[3] = target: SHP-2 wild-type full-length, purified recombinant protein (UniProt Q06124)
[4] = target: t-SHP-2 (SHP-2 amino acids 1-225, tandem N-SH2 and C-SH2 domains) (UniProt Q06124); assay: ITC; MicroCal ITC200; peptide (50-100 uM) titrated into t-SHP-2 (3-5 uM), 19 injections, 20 C; 50 mM HEPES pH 7.4, 100 mM NaCl, 5 mM TCEP
SHP-2-full-length = target: T2, SHP-2-full-length (Homo sapiens, UniProt Q06124); assay: SPR: SHP-2-full-length binding to immobilized PD-1 phosphopeptides; settings: identical conditions as for ITSM-pY248 surface
T2 construct: glutathione-S-transferase (GST) fusions to SHP-2 wild-type full-length (SHP-2-WT-FL) using the pGEX 4T-3 vector; GST (N, cleaved yes); made in house; host or cells: E. coli BL21(D3)LysS
T2 sequence (Q06124 1-593): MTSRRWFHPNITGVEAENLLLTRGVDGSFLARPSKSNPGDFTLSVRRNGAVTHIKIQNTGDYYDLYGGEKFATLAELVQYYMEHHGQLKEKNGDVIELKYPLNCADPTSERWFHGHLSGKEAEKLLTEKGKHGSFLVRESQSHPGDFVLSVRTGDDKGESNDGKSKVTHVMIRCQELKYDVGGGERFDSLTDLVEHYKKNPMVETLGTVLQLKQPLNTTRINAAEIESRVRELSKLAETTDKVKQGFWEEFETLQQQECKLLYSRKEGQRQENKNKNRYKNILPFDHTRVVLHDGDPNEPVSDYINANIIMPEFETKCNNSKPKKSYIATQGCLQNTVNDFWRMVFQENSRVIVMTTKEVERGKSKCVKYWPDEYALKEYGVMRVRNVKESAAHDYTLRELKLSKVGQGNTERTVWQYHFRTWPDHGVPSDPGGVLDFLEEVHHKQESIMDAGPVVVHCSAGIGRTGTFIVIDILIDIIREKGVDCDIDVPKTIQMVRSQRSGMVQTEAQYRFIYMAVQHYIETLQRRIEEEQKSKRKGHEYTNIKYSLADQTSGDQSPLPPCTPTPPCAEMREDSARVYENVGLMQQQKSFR

SHP-2-WT = assay: SHP-2 phosphatase activity, DiFMUP substrate; assay type: biochemical
SHP-2 [5] = target: SHP-2 (UniProt Q06124); assay: PD-1 IP, SHP-2 blot; settings: reference: PD-1 wild type; sites Y248
SHP-2 [6] = target: SHP-2 (UniProt Q06124); assay: PD-1 IP, FLAG (SHP-2) blot; settings: reference: PD-1 wild type; sites Y248
PD1LgDM = assay: NanoBiT proximity assay (split luciferase) in HEK-293 cells; settings: PD1SmDM + PD1LgDM + SHP2WT, read off a plot
PD1LgY223F = assay: as above; settings: PD1SmY223F + PD1LgY223F + SHP2WT, Fyn (-) kinase inactive; parent: est. 100; read off a plot
PD1LgY248F = assay: as above; settings: PD1SmY248F + PD1LgY248F + SHP2WT, Fyn (-) kinase inactive; parent: est. 100; read off a plot
SHP-2 1-225 [7] = target: SHP-2 1-225 (UniProt Q06124); assay: native PAGE mobility shift; settings: reference: PD-1cyto-pITIM-pITSM (pY223 + pY248)
SHP-2 1-225 [8] = target: SHP-2 1-225 (UniProt Q06124); assay: ITC; settings: reference: PD-1cyto-pITIM-pITSM (pY223 + pY248); sites Y248

## CC[C@H](C)[C@H](NC(=O)[C@@H](NC(=O)[C@H](C)NC(=O)[C@H](Cc1ccc(OP(=O)(O)O)cc1)NC(=O)[C@H](CCC(=O)O)NC(=O)[C@@H](NC(=O)[C@H](CCC(N)=O)NC(=O)[C@H](CCC(=O)O)NC(=O)[C@@H]1CCCN1C(=O)[C@@H](NC(=O)[C@H](CS)NC(=O)[C@@H]1CCCN1C(=O)[C@@H](NC(=O)[C@@H]1CCCN1C(=O)[C@@H]1CCCN1C(=O)[C@H](CCC(=O)O)NC(=O)[C@@H]1CCCN1C(=O)[C@@H](NC(=O)[C@H](CCCCN)NC(=O)[C@H](CCC(=O)O)NC(=O)[C@H](CCCNC(=N)N)NC(=O)[C@H](Cc1c[nH]c2ccccc12)NC(=O)[C@H](CCC(N)=O)NC(=O)[C@H](Cc1ccccc1)NC(=O)[C@H](CC(=O)O)NC(=O)[C@H](CC(C)C)NC(=O)[C@H](CCC(=O)O)NC(=O)CNC(=O)[C@H](Cc1ccc(O)cc1)NC(=O)[C@H](CC(=O)O)NC(=O)[C@@H](NC(=O)[C@H](CO)NC(=O)[C@H](Cc1ccccc1)NC(=O)[C@@H](NC(=O)[C@@H]1CCCN1C(=O)[C@@H](NC(=O)[C@H](C)NC(=O)[C@@H](N)CO)C(C)C)C(C)C)C(C)C)[C@@H](C)O)C(C)C)C(C)C)[C@@H](C)O)[C@@H](C)O)C(=O)N[C@H](C(=O)N[C@@H](Cc1ccccc1)C(=O)N1CCC[C@H]1C(=O)N[C@@H](CO)C(=O)O)C(C)C [PD-1cyto-ITIM-pITSM]
[1]
  pKd: 6.11

## CC[C@H](C)[C@H](NC(=O)[C@@H](NC(=O)[C@H](C)NC(=O)[C@H](Cc1ccc(OP(=O)(O)O)cc1)NC(=O)[C@H](CCC(=O)O)NC(=O)[C@@H](NC(=O)[C@H](CCC(N)=O)NC(=O)[C@H](CCC(=O)O)NC(=O)[C@@H]1CCCN1C(=O)[C@@H](NC(=O)[C@H](CS)NC(=O)[C@@H]1CCCN1C(=O)[C@@H](NC(=O)[C@@H]1CCCN1C(=O)[C@@H]1CCCN1C(=O)[C@H](CCC(=O)O)NC(=O)[C@@H]1CCCN1C(=O)[C@@H](NC(=O)[C@H](CCCCN)NC(=O)[C@H](CCC(=O)O)NC(=O)[C@H](CCCNC(=N)N)NC(=O)[C@H](Cc1c[nH]c2ccccc12)NC(=O)[C@H](CCC(N)=O)NC(=O)[C@H](Cc1ccccc1)NC(=O)[C@H](CC(=O)O)NC(=O)[C@H](CC(C)C)NC(=O)[C@H](CCC(=O)O)NC(=O)CNC(=O)[C@H](Cc1ccc(OP(=O)(O)O)cc1)NC(=O)[C@H](CC(=O)O)NC(=O)[C@@H](NC(=O)[C@H](CO)NC(=O)[C@H](Cc1ccccc1)NC(=O)[C@@H](NC(=O)[C@@H]1CCCN1C(=O)[C@@H](NC(=O)[C@H](C)NC(=O)[C@@H](N)CO)C(C)C)C(C)C)C(C)C)[C@@H](C)O)C(C)C)C(C)C)[C@@H](C)O)[C@@H](C)O)C(=O)N[C@H](C(=O)N[C@@H](Cc1ccccc1)C(=O)N1CCC[C@H]1C(=O)N[C@@H](CO)C(=O)O)C(C)C [PD-1cyto-pITIM-pITSM]
[1]
  pKd: 7.80

## CC1(N)CCN(c2cnc(-c3cccc(Cl)c3Cl)c(N)n2)CC1 [SHP099]
[2]
  effect on PD-1: PD-1 interaction: dose-dependent inhibition of PD-1: PD-1 interaction

## Bisphosphoryl ITSM peptide pITSM-Ahx4-pITSM (bpITSM)
[3]
  potency in inducing SHP-2 phosphatase activity relative to the bisphosphoryl peptide bpIRS: 3 fold

## Bisphosphoryl peptide of native sequence of PD-1 cytoplasmic tail (PD-1cyto-pITIM-pITSM)
[4]
  stoichiometry N (peptide per t-SHP-2): 1

## KEDPSAVPVFSVD[pY]GELDFQWRE [pITIM, monophosphorylated human PD-1 ITIM-pY223 phosphopeptide]
SHP-2-full-length
  specific interaction of SHP-2 protein with peptide-coated surface: no specific interaction
SHP-2-WT; DiFMUP substrate, Fig. 5a
  increase in the catalytic activity of SHP-2 compared to negative control pIRSY727: did not induce an increase
SHP-2-WT; bpITSM 0.01 µM with increasing amounts of monophosphorylated peptide, Fig. 5d
  effect on SHP-2 activation induced by bpITSM (competition): only when added at very high molar concentrations (1000x excess of bpITSM)

## Monophosphoryl peptide of native sequence of PD-1 cytoplasmic tail (PD-1cyto-ITIM-pITSM)
[4]
  stoichiometry N (peptide per t-SHP-2): 2

## PD-1 (from UniProt Q15116) PD-1 Y248F
SHP-2 [5]
  binding against the reference: lost
SHP-2 [6]
  binding against the reference: lost

## PD-1 NanoBiT fusions (PD-1-LgBiT and PD-1-SmBiT) in HEK-293 cells with kinase-active Fyn (from UniProt Q15116) DM
PD1LgDM; Fyn (+) kinase active, parent: est. 255
  response: 90 RLU

## PD-1 NanoBiT fusions (PD-1-LgBiT and PD-1-SmBiT) in HEK-293 cells with kinase-inactive Fyn (from UniProt Q15116) DM
PD1LgDM; Fyn (-) kinase inactive, parent: est. 100
  response: 88 RLU

## PD-1 NanoBiT fusions (PD-1-LgBiT and PD-1-SmBiT) in HEK-293 cells with kinase-inactive Fyn (from UniProt Q15116) Y223F
PD1LgY223F
  response: 90 RLU

## PD-1 NanoBiT fusions (PD-1-LgBiT and PD-1-SmBiT) in HEK-293 cells with kinase-inactive Fyn (from UniProt Q15116) Y248F
PD1LgY248F
  response: 80 RLU

## PD-1 cytoplasmic tail peptide (from UniProt Q15116) PD-1cyto-ITIM-pITSM (pY248 only)
SHP-2 1-225 [7]; sites Y223
  binding against the reference: same

## PD-1 cytoplasmic tail peptide (from UniProt Q15116) PD-1cyto-pITIM-ITSM (pY223 only)
SHP-2 1-225 [7]; sites Y248
  binding against the reference: lost
SHP-2 1-225 [8]
  KD: lost; reference 0.0159

## SAVPVFSVD(pY)GELDFQWREKTPEPPVPCVPEQTEYATIVFPS (SAVPVFSVD[pY]GELDFQWREKTPEPPVPCVPEQTEYATIVFPS) [PD-1cyto-pITIM-ITSM]
[1]; same conditions
  peptide: t-SHP-2 interaction by ITC: not detectable

## TE(pY)ATIVFP-Ahx10-QTE(pY)ATIVFPS [bpITSM-Ahx10, bisphosphoryl ITSM peptide with 10-Ahx spacer]
SHP-2-WT; 3x lower enzyme concentration (0.5 µg/ml SHP-2-WT), Fig. 5e
  catalytic activity of SHP-2 compared to the negative control pIRSY727: caused a higher increase in SHP-2 activation

## VD(pY)GELDFQ-Ahx4- QTE(pY)ATIVFPS [pITIM-pITSM, bisphosphoryl ITIM-ITSM peptide with 4-Ahx spacer]
SHP-2-WT; DiFMUP substrate, compared to pIRSY727 and pIRSY1172, Fig. 5a
  peptide concentration at which catalytic activity of SHP-2 is increased: above 1 µM

## VD(pY)GELDFQ-Ahx4-SVD(pY)GELDFQW [bpITIM, bisphosphoryl ITIM-ITIM peptide with 4-Ahx spacer]
SHP-2-WT; DiFMUP substrate, Fig. 5a
  increase in the catalytic activity of SHP-2 compared to negative control pIRSY727: did not induce an increase
